{"source": "the supplement of paper PMC7877785", "assay": "self-splicing fitness, log relative to wild type (ln ratio); higher = more splicing; Tetrahymena group I intron in knt gene, E. coli kanamycin selection, DiMSum; sequences stand for … in CUCUCU…GGAGGGAAAAGUUAUCAGGCAUGCACCUGGUAGCUAGUCUUUAAACCAAUAGAUUGCAUCGGUUUAAAAGGCAAGACCGUCAAAUUGCGGGAAAGGGGUCAACAGCCGUUCAGUACCAAGUCUCAGGGGAAACUUUGAGAUGGCCUUGCAAAGGGUAUGGUAAUAAGCUGACGGACAUGGUCCUAACCACGCAGCCAAGUCCUAAGUCAACAGAUCUUCUGUUGAUAUGGAUGCAGUUCACAGACUAAAUGUCGGUCGGGGAAGAUGUAUUCUUCUCAUAAGAUAUAGUCGGACCUCUCCUUAAUGGGAGCUAGCGGAUGAAGUGAUGCAACACUGGAGCCGCUGGGAACUAAUUUGUAUGCGAAAGUAUAUUGAUUAGUUUUGGAGUACUCGUGGUCG", "in_short": "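Six replicate transformations of E. coli BL21(DE3) with a pET-22b(+) library were grown overnight at 37°C or 30°C. The library randomised all eight P1ex-region intron nucleotides, the intron lying in the knt kanamycin-resistance gene, and plates were LB agar with or without 25 μg/mL kanamycin plus 100 μg/mL carbenicillin, 50 μM IPTG and 0.2% rhamnose. Pooled colonies were amplicon-sequenced on an Illumina HiSeq 2500, and fitness is the DiMSum error-weighted combination of wild-type-normalised replicate fold changes, kanamycin versus none.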", "note": "± gives the uncertainty stated by the source.", "data": [{"sequence": "CGGUAGCAAUAUUACGGAUG", "values": [{"measurement": "self-splicing fitness (ln)", "setting": "30 °C", "result": "-0.393 ± 0.063"}, {"measurement": "self-splicing fitness (ln)", "setting": "37 °C", "result": "0.221 ± 0.096"}]}, {"sequence": "AGUUAGCAAUAUUACGGUAA", "values": [{"measurement": "self-splicing fitness (ln)", "setting": "30 °C", "result": "-2.21 ± 0.17"}, {"measurement": "self-splicing fitness (ln)", "setting": "37 °C", "result": "-1.53 ± 0.12"}]}, {"sequence": "CUUCAGCAAUAUUACGUGUG", "values": [{"measurement": "self-splicing fitness (ln)", "setting": "30 °C", "result": "-1.1 ± 0.061"}, {"measurement": "self-splicing fitness (ln)", "setting": "37 °C", "result": "-0.859 ± 0.076"}]}, {"sequence": "UCAGAGCAAUAUUACGUUCC", "values": [{"measurement": "self-splicing fitness (ln)", "setting": "30 °C", "result": "-3.84 ± 0.47"}, {"measurement": "self-splicing fitness (ln)", "setting": "37 °C", "result": "-2.57 ± 0.49"}]}, {"sequence": "CGGCAGCAAUAUUACGCAAC", "values": [{"measurement": "self-splicing fitness (ln)", "setting": "37 °C", "result": "-2.1 ± 0.26"}]}, {"sequence": "UGUUAGCAAUAUUACGGCAA", "values": [{"measurement": "self-splicing fitness (ln)", "setting": "30 °C", "result": "-0.875 ± 0.15"}, {"measurement": "self-splicing fitness (ln)", "setting": "37 °C", "result": "-0.17 ± 0.14"}]}, {"sequence": "CCAGAGCAAUAUUACGCAGU", "values": [{"measurement": "self-splicing fitness (ln)", "setting": "30 °C", "result": "-3.22 ± 0.13"}, {"measurement": "self-splicing fitness (ln)", "setting": "37 °C", "result": "-3.42 ± 0.21"}]}, {"sequence": "ACGCAGCAAUAUUACGCUCC", "values": [{"measurement": "self-splicing fitness (ln)", "setting": "37 °C", "result": "-0.96 ± 0.18"}]}, {"sequence": "AAGCAGCAAUAUUACGCCUC", "values": [{"measurement": "self-splicing fitness (ln)", "setting": "37 °C", "result": "-1.22 ± 0.4"}]}, {"sequence": "ACCGAGCAAUAUUACGGUCA", "values": [{"measurement": "self-splicing fitness (ln)", "setting": "30 °C", "result": "-1.22 ± 0.12"}, {"measurement": "self-splicing fitness (ln)", "setting": "37 °C", "result": "-1.06 ± 0.14"}]}, {"sequence": "CCGUAGCAAUAUUACGCAAA", "values": [{"measurement": "self-splicing fitness (ln)", "setting": "37 °C", "result": "-2.24 ± 0.25"}]}, {"sequence": "CCAGAGCAAUAUUACGGUUG", "values": [{"measurement": "self-splicing fitness (ln)", "setting": "30 °C", "result": "-1.11 ± 0.089"}, {"measurement": "self-splicing fitness (ln)", "setting": "37 °C", "result": "-1.04 ± 0.13"}]}, {"sequence": "AUGUAGCAAUAUUACGUCGA", "values": [{"measurement": "self-splicing fitness (ln)", "setting": "30 °C", "result": "-3.98 ± 0.26"}, {"measurement": "self-splicing fitness (ln)", "setting": "37 °C", "result": "-2.06 ± 0.18"}]}, {"sequence": "GACCAGCAAUAUUACGCCAA", "values": [{"measurement": "self-splicing fitness (ln)", "setting": "30 °C", "result": "-2.99 ± 0.22"}, {"measurement": "self-splicing fitness (ln)", "setting": "37 °C", "result": "-1.45 ± 0.15"}]}, {"sequence": "UCUGAGCAAUAUUACGCCGG", "values": [{"measurement": "self-splicing fitness (ln)", "setting": "30 °C", "result": "-1.96 ± 0.22"}, {"measurement": "self-splicing fitness (ln)", "setting": "37 °C", "result": "-0.975 ± 0.24"}]}, {"sequence": "GCUCAGCAAUAUUACGGGUA", "values": [{"measurement": "self-splicing fitness (ln)", "setting": "30 °C", "result": "-0.401 ± 0.077"}, {"measurement": "self-splicing fitness (ln)", "setting": "37 °C", "result": "-0.454 ± 0.078"}]}, {"sequence": "UUACAGCAAUAUUACGCGAG", "values": [{"measurement": "self-splicing fitness (ln)", "setting": "30 °C", "result": "-1.02 ± 0.085"}, {"measurement": "self-splicing fitness (ln)", "setting": "37 °C", "result": "-0.72 ± 0.08"}]}, {"sequence": "GAGCAGCAAUAUUACGCGAG", "values": [{"measurement": "self-splicing fitness (ln)", "setting": "30 °C", "result": "-2.38 ± 0.14"}, {"measurement": "self-splicing fitness (ln)", "setting": "37 °C", "result": "-0.876 ± 0.12"}]}, {"sequence": "AAGGAGCAAUAUUACGACAU", "values": [{"measurement": "self-splicing fitness (ln)", "setting": "30 °C", "result": "-2.282 ± 0.02"}, {"measurement": "self-splicing fitness (ln)", "setting": "37 °C", "result": "-1.6 ± 0.037"}]}, {"sequence": "UCCCAGCAAUAUUACGAUUG", "values": [{"measurement": "self-splicing fitness (ln)", "setting": "30 °C", "result": "-3.56 ± 0.32"}, {"measurement": "self-splicing fitness (ln)", "setting": "37 °C", "result": "-3.17 ± 0.4"}]}, {"sequence": "UCCCAGCAAUAUUACGCCUC", "values": [{"measurement": "self-splicing fitness (ln)", "setting": "30 °C", "result": "-3.11 ± 0.23"}, {"measurement": "self-splicing fitness (ln)", "setting": "37 °C", "result": "-1.98 ± 0.29"}]}, {"sequence": "AUAUAGCAAUAUUACGGCUG", "values": [{"measurement": "self-splicing fitness (ln)", "setting": "30 °C", "result": "-0.816 ± 0.14"}, {"measurement": "self-splicing fitness (ln)", "setting": "37 °C", "result": "0.663 ± 0.19"}]}, {"sequence": "UAUCAGCAAUAUUACGAACC", "values": [{"measurement": "self-splicing fitness (ln)", "setting": "30 °C", "result": "-1.66 ± 0.24"}, {"measurement": "self-splicing fitness (ln)", "setting": "37 °C", "result": "-0.148 ± 0.38"}]}, {"sequence": "GGACAGCAAUAUUACGAAAA", "values": [{"measurement": "self-splicing fitness (ln)", "setting": "30 °C", "result": "-1.42 ± 0.19"}, {"measurement": "self-splicing fitness (ln)", "setting": "37 °C", "result": "-1.36 ± 0.15"}]}, {"sequence": "AUUUAGCAAUAUUACGCUAG", "values": [{"measurement": "self-splicing fitness (ln)", "setting": "30 °C", "result": "-0.961 ± 0.097"}, {"measurement": "self-splicing fitness (ln)", "setting": "37 °C", "result": "-0.937 ± 0.12"}]}, {"sequence": "UCCCAGCAAUAUUACGGUCC", "values": [{"measurement": "self-splicing fitness (ln)", "setting": "30 °C", "result": "-1.68 ± 0.14"}, {"measurement": "self-splicing fitness (ln)", "setting": "37 °C", "result": "-1.26 ± 0.18"}]}, {"sequence": "UAAGAGCAAUAUUACGUAGG", "values": [{"measurement": "self-splicing fitness (ln)", "setting": "30 °C", "result": "-3.24 ± 0.33"}, {"measurement": "self-splicing fitness (ln)", "setting": "37 °C", "result": "-2.56 ± 0.3"}]}, {"sequence": "UCGCAGCAAUAUUACGCGGG", "values": [{"measurement": "self-splicing fitness (ln)", "setting": "30 °C", "result": "-3.93 ± 0.3"}, {"measurement": "self-splicing fitness (ln)", "setting": "37 °C", "result": "-3.33 ± 0.33"}]}, {"sequence": "GAUCAGCAAUAUUACGCAAA", "values": [{"measurement": "self-splicing fitness (ln)", "setting": "30 °C", "result": "-0.978 ± 0.17"}, {"measurement": "self-splicing fitness (ln)", "setting": "37 °C", "result": "-0.367 ± 0.16"}]}, {"sequence": "CGUGAGCAAUAUUACGACCU", "values": [{"measurement": "self-splicing fitness (ln)", "setting": "30 °C", "result": "-1.34 ± 0.28"}, {"measurement": "self-splicing fitness (ln)", "setting": "37 °C", "result": "-1.17 ± 0.3"}]}, {"sequence": "UACCAGCAAUAUUACGAAUC", "values": [{"measurement": "self-splicing fitness (ln)", "setting": "30 °C", "result": "-2.37 ± 0.2"}, {"measurement": "self-splicing fitness (ln)", "setting": "37 °C", "result": "-1.05 ± 0.23"}]}, {"sequence": "CAUAAGCAAUAUUACGUGCC", "values": [{"measurement": "self-splicing fitness (ln)", "setting": "30 °C", "result": "-3.1 ± 0.21"}, {"measurement": "self-splicing fitness (ln)", "setting": "37 °C", "result": "-2.66 ± 0.38"}]}, {"sequence": "AGACAGCAAUAUUACGCUGU", "values": [{"measurement": "self-splicing fitness (ln)", "setting": "30 °C", "result": "-4.06 ± 0.29"}, {"measurement": "self-splicing fitness (ln)", "setting": "37 °C", "result": "-2.54 ± 0.21"}]}, {"sequence": "GUCCAGCAAUAUUACGCACC", "values": [{"measurement": "self-splicing fitness (ln)", "setting": "30 °C", "result": "-2 ± 0.17"}, {"measurement": "self-splicing fitness (ln)", "setting": "37 °C", "result": "-0.64 ± 0.17"}]}]}
